# Source: the DeepSol protein solubility set
# Experiment: soluble on expression in E. coli; label from the status in PepcDB or PDB records
row,Sequence,soluble on expression in E. coli
1,MSLKIYLFKPYDVIGFGGLKNFSAGETHIQKSIFPPPIMRFFHIFNSVYGVFLYKDGNLFLPVPSDCLVKRKEESGKAKISPLEFPPLIRGDLEAYERANGFISFSDLMNKYAKNIDGFKIYLLEEFLKKESRVGITMDKERRVVRSIKEINRKEEKGLLYSQDFFRFNDGVKLAVLGEINKDIVISGKQYFRMGGEGKIVSFKHTEHINSFLEGKIKIKNGNYYKFYCLTHAYINNGIIESKIQTICIEGINFEVEWLYNGGVEYVSGYNKPFLEMLRPGSVLILKAKNEGEIQRLNQISTNVPISNIKNFLNRGWNSGIIVEGVKEGHHHHHH,soluble
2,MSLASKSIRILSVEDHPVVREGLVSIIGSQPDMVLVAQATNGSDAIAQFRTHHPDITLMDLRLPGISGTDALISIRGEFPRARVIILTTSDSHTEIDRALRAGAAAYILKSMPMNEMLAVIRSVHAGARHIPQEVASRLAENIGEESLTSRELEVLHLIRDGHRNKQIADELSISETTVNFHIKNIVGKMGANDRTHAVTIAVRRGLLQEGHHHHHH,soluble
3,MTENELLTRCGGKCELCGSDVELAIYDLPASDGHENEIMICENCSSQIAAPDTMDMNHWRCLNDSMWSQVPAVQVMSYRMLKRLSGESWAQDLLDMLYLEDDLRAWGDAEAAAASDDTPPTLDSNGAVLNAGDTVVIIKDLNVKGTSFVAKRGTAVRNIALTNNPEHIEGRVNGTRIVILTCFVKKSLEHHHHHH,soluble
4,FEEHLKKKPLRERLLEIPELRTEGLRDCQVMAISNLEKSFKDYRPRALIQMATGSGKTYTAITFIYRLLKFADARKVLFLVDTKNLGEQAEQEFMAYVPNDDNRKFTELYNVQRLRSSYISSDSQVCISTIQRLYSILKGEDLDEKTEEENPAERGWQLKEPLPVVYNEKVPIEEFDFIVIDECHRSIY,not soluble
5,MRAELQAETEAERLERQAKLHELLHRLRGEPNVLLPFHQALALRPRGERHLGLRTIEVDKVVGSVDRYEDFDHRFLPKTPHTLERWKRLRALQLAGAEFPPIEVYQVGEAYFVKDGNHRVALAKATGQKFIDAHVIALDVPVPIEPGDTPKDLLLKAEYAHFLEKTRLKDLVPGAEEIRFTALGRYDRLLDHIATRRYFKGLEEGREISWEEAVVDWYENLYKPTVEAIRRLGLLRDFPGRTEADLYLWVMDHRYFLARELGVDPGPEGAAKSYEAHFGGVWKRLGGGLKRLLTGR,soluble
6,MGRVTLRITGTQLLCQDEHPSLLAALESHNVEVEYQCREGYCGSCRTRLVAGQVDWITEPLAFIQPGEILPCCCRAKGDIEIEM,not soluble
7,VALAATRAFYWIEAQSPDAATAFAQRVFDLYFSDRLDTASPEAVSRLGPEVGLEPEALLAGIADPALKETVRKIGEDAVARGIFGSPFFLVDDEPFWGWDRMEMMAEWIRTGGW,not soluble
8,MKTTPIPLRRDIILDGKWCAAMLKELESLYEGDIVINGQPEHPEDYEWFYTADGDEIGIAKHRLTEQERRLLALFFTPAERRREPESEEERAWKRWMATGDPAALARLAAPYCRFIHFTASRPIANKEEFADAVRGLFSSPVAIVWEQDRRGLIVEAKQKRTTEPPSLADMAEALAADFYTALHLLIGPIRSVDERLYESFLLEKECFSAARRFWPKRTVYEWEDVIPLPLFEEGAVSEKARRTLSFLDGFDEEEVRAMETFLQCNLNVSMAAKKLYMHRNSLQYRIDKWAEQTGVDIKRFKGAAAVYLAILHRRRS,not soluble
9,MEKEKSLMKKQSKKSKKQNIEINYLDLIPVRSEELHWHKDIKGRVILDVENTGWFNKIAQTVFNKPQYTKVHLDAQGTFIWPLIDGKRTVTDIAALVKEEFGEAAEPLYPRIIKYFQIVESYHFIKFANMPSK,not soluble
10,MVIDFNRLNPGSTPATTGRTGSTAAGRPDATGADKAGQAATSAPKSGESVQISETAQNMQKVTDQLQTLPVVDNDKVARIKQAIADGTYQVDSERVASKLLDFESQR,not soluble
11,MKSGRFIGVMSGTSLDGVDVVLAAIDETMVAQQASLTWPIPVHLKKGILDICQGQPLTLSQLGQLDTQLGRLFAQAVNALLAQQRLQPRDIVAIGCHGQTVWHEPTGEAPHTLQIGDNNHIVAHTGITVVGDFRRRDIALGGQGAPLVPAFHHALLGHPTEKRMVLNIGGIANLSLLFPGQAVRGYDTGPGNMLMDAWIWRQCAQPYDKDAAWAKEGQVILPLLQKMLRDPYFAASAPKSTGREYFNYGWLERHLAAFPGADARDVQATLAELTAVSIAQQVLLNGGCERLMVCGGGGRNPLVMARLAALLPGIEVSTTDKAGISGDDMEALAFAWLAWRTLAGLPGNLPSVTGATEASVLGAIYPANPITQS,not soluble
12,MVEKHLLEFLEKLQFLISKNVKISHYGIENVKKICGVDIAYKGNLGFSVGVSMDINSGDYNYKSYVGEVNFPYIPGFLFMREAPLMIKAIEGLDCHLLLVDGHGIAHPRKSGIAAVIGVLLDFPTIGVAKSRLTGDLVNESEITYVYLNGEKVGVKFGRYFYSPGNKVDLQDCIELGKRGYPKVLKIADMLTKKIKKE,soluble
13,MTASFPTRVYLLRHAKAAWAAPGERDFDRGLNEAGFAEAEIIADLAADRRYRPDLILSSTAARCRQTTQAWQRAFNEGIDIVYIDEMYNARSETYLSLIAAQTEVQSVMLVGHNPTMEATLEAMIGEDLLHAALPSGFPTSGLAVLDQDDSAASGKNRWRLIDFLAPGK,soluble
14,MAHHHHHHMPTASASREPLVPSINFSMVCPGVYRSGYPTKKNYSFLCALRLRSILYLCPEDYAESNLKFCEENGIHVLRFPTEGNKEPFCDVSEPLMHRILSAICDTRNLPLLIHCNKGKHRTGTVVACLRHLQGWSLVSIFEEYKRFASDKARVGDQQYVELYHPIVKLTPPFVALWVTVTPRVTLVTSDRELMEAEAMQLGYSLLAPDKHLMKNGSSTNKSTAPTAAAASGAASVTAAPAAAAAATAGSGPTVAVSTSGPSAAGAMQQQQPSQPVTSAASASASNSGHSLAPSLMATAATPAAADR,not soluble
15,MIRVYIALGSNLAMPLQQVSAAREALAHLPRSRLVACSPLYRTKPLGPQDQPDFLNAVVALDTSLPPEQLLDHTQAIERNQGRVRKEQRWGPRTLDLDIMLYGDQVIKTDRLTIPHYGLKAREFMLYPLADIAPDLIFPDGESLSECLKRVDKNGLVLW,soluble
16,MGSDKIHHHHHHMRLPDAGFRRYIVVAGRRNVGKSSFMNALVGQNVSIVSEYAGTTTDPVYKSMELYPVGPVTLVDTPGLDDVGELGRLRVEKARRVFYRADCGILVTDSEPTPYEDDVVNLFKEMEIPFVVVVNKIDVLGEKAEELKGLYESRYEAKVLLVSALQKKGFDDIGKTISEILPGDEEIPYLGDLIDGGDLVILVVPIDLGAPKGRLIMPQVHAIREALDREAIALVVKERELRYVMENIGMKPKLVITDSQVVMKVASDVPEDVELTTFSIVESRYRGDLAYFVESVRKIEELEDGDTVVIMEGCTHRPLTEDIGRVKIPRWLVNHTGAQLNFKVIAGKDFPDLEEIEGAKLIIHCGGCVLNRAAMMRRVRMAKRLGIPMTNYGVTISYLHGVLDRAIRPFREEVKV,not soluble
17,MGSSHHHHHHSQDPPAVHKLTKRIPLRRQVTVSAESSSSMNSNTPLVRITTRLSSTADTPMLAGVSEYELPEDPKWEFPRDKLTLGKPLGEGCFGQVVMAEAVGIDKDKPKEAVTVAVKMLKDDATEKDLSDLVSEMEMMKMIGKHKNIINLLGACTQDGPLYVIVEYASKGNLREYLRARRPPGMEYSYDINRVPEEQMTFKDLVSCTYQLARGMEYLASQKCIHRDLAARNVLVTENNVMKIADFGLARDINNIDYYKKTTNGRLPVKWMAPEALFDRVYTHQSDVWSFGVLMWEIFTLGGSPYPGIPVEELFKLLKEGHRMDKPANCTNELYMMMRDCWHAVPSQRPTFKQLVEDLDRILTLTTNEE,soluble
18,PVKPVAPGEQQKNWAHWGNTTHGDRFAALDQINKQNVNQLQVAWVAHTGDIPQSNGSGAEDQNTPLQIGDTLYVCTPYSKVLALDVDSGKEKWRYDSKSSSPNWQRCRGLGYYEDSQAQTAPAAGTQPAACSRRLFLPTIDARLIAIDADTGKLCESFGDRGIVDLSVGMGEVKAGYYQQTSTPLVAGNVVVVGGRVADNYSTGEPPGVVRAFDVHTGKLAWAWDPGNPALTGVPPEGQTYTRGTPNVWSAMSYDAKLNLIYLPTGNATPDFFGGERTALDDKYSSSIVAVDATTGQVRWHFQTTHHDLWDFDLPSQPLLYDLPDGKGGTTPVLVQTSKQGMIFMLNRETGEPVAKVEERPVPAGNVKGERYSPTQPYSVGMPMIGNQTLTESDMWGATPIDLLLCRIQFKEMRHQGVFTPPGEDRSLQFPGSLGGMNWGSVSLDPNNSLMFVNDMRLGLANYMVPRAKVAKDASGIEMGIVPMEGTPFGAMRERFLSPLGIPCQKPPFGTMSAVDLKTGKLVWQVPVGTVEDTGPLGIRMHMPIPIGMPTLGASLATQSGLLFFAGTQDFYLRAFDTANGKEIWKSRLPVGSQSGPMTYVSPKTGKQYIIINAGGARQSPDRGDYIIAYALPDHH,not soluble
19,MGSDKIHHHHHHMTARWRSANGRPAPTRVEVVSDSLTADDANRMASQGIAMLWQGDFHNARQILNAMDRRIGAGKKETAATPAEKFYRHRQSASHRARILGLLLIPLDPGPVVPLRRAPDIRQAAAGAYGDIGEPSVVSLHELVGAIGAHEWRRNGVYVDALEGRIHPHYGTFFPTRSEYVDLVAAAALPSDTLAFDVGTGTGVLAAVLARRGVRSVVATDNEPRAIACAAENFRNLGVQDRAEAVLTDMFPPGRAPLIVCNPPWIPATPHSSLDSAVYDPGSRMLFRFLNELSDHLEPGGEGWLVLSDLAEHLGLRSRGDLLAAIEAAGLKVVERLDTKPTHPKASDRDDPLFEARTAEVTSLWRLVPR,not soluble
20,MNVAIIGATGYSGAELFRLLHGHPHVSRCDVFSSSQDGVHVSESFPHVGSVDGAVLHKLEIEALSRYDAVFFATPPGVSGEWAPALVDRGVKVIDLSGDFRLKDGAVYEQWYGRQTAPAEYLQKAVYGLTEWNREAVREAVLLSNPGCYPTATLLGLAPLVKEGLIKEDSIIVDAKSGVSGAGRKAGLGTHFSEVNENVKIYKVNVHQHIPEIEQTLQTWNEAMEPITFSTHLIPMTRGIMATIYAKAKQSISPNDLVDLYKTSYEGSPFVRIRQLGQFPATKEVYGSNYCDIGLAYDERTGRVTVVSVIDNLMKGAAGQAVQNFNLMMGWDEAEGLQSLPIYP,not soluble
21,MVELTPAAIQELERLQTHGVRRGQAAILRIQVQPSECGDWRYDLALVAEPKPTDLLTQSQGWTIAIAAEAAELLRGLRVDYIEDLMGGAFRFHNPNASQTCGCGMAFRVSRS,soluble
22,RMTVWQLDLQKRLVQVDGDVARLIGLSHVPPELPVAVFENYVDPEDLPLLRAAEAAALRGEPMQVELRLVLESGGRRWLRLMGEPRPDA,not soluble
23,MEDFWEDWDLAFEDVFPKSLKEALEGIKEIPTYGERGASRFMYNLLKLEKEKRKEIIEKVLEAVEVLRPCRECFLITDREVCPICSDEKRSKKFICVVEESQDAYAIEKLERYKGVYHVLQGHIAPLEGISAEDLTIDALMERIKKYQPKEVILATNPNVEGEATANYIAGLIRRKFPAVKITRTAYGFQFGSLIEFVDEYSLEKSMENRK,soluble
